# Assay results reported in US20110002937A1 (THOMAS JEFFERSON UNIVERSITY, published 2011).
# B1: 6A antibody (human monoclonal IgG secreted by hybridoma 6A, ATCC accession no. PTA-8870) (antibody, V domains shown)
# VH: EVQLVESGGGVVKPGGSLRLSCTAFGFTFEDFGMHWVRQAPGKGLEWVSLVSGEGGSKYYADSVKGRFTISRDNKKHSLYLHMNSLKTEDTALYYCAKDVWTYHYDSSGYQYYYGMDVWGQGTTVTVSS
# VL: QEPAVSVALGQTVRITCQGDSLRSYSASWYQQRPGQAPLFVMYGKDKRPSGIPDRFSGSASGNTASLTITGAQAEDEADYYCNCRDSSNQYWIFGGGTKVTVL
# Target: recombinant 50 kD C-terminal BoNT/A domain (HC50A) (Clostridium botulinum, UniProt P0DPI0 871-1296)
# Sequence (P0DPI0 871-1296 limits assumed): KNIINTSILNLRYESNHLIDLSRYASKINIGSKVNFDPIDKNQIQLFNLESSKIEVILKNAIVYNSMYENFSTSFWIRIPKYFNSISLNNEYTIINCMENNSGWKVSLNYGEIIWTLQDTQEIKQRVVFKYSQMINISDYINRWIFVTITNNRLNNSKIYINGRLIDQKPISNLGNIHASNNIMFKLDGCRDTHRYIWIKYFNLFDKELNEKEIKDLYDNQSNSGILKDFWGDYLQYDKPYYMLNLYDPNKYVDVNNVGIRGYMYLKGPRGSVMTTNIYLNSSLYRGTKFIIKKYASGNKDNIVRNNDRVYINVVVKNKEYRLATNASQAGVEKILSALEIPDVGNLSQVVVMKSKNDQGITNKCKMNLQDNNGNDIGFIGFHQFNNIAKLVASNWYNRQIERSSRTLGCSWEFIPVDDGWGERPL
binder,measurement,value
B1,Kd,6.9 pM
same,kon,440000 M⁻¹ s⁻¹
